This experiment concerns the target Mos1 transposase (T216A mutant) (Drosophila mauritiana). In words: crystal structure; Mos1 IRL paired-end complex: full-length transposase mixed with duplex IRL DNA at 1:1.5 protein:DNA in 25 mM Tris pH 7.5, 250 mM KCl, 1 mM DTT; crystals grown at 17 °C; 3.1 Å.

As to “Mos1 transposase (T216A mutant) (enzyme)”, the stoichiometry N – broadly, a count of units in the complex or per binding partner – amounted to 2.

These data come from article PMC4505599.
